The values that follow come from article PMC7238435.

A word on the stoichiometry N: it is a count of units in the complex or per binding partner.

In the assay the target is recombinant human cartilage oligomeric matrix protein (COMP) (human) (UniProt P49747). In words: atomic force microscopy.

Sequence of recombinant human cartilage oligomeric matrix protein (COMP), P49747 21-757 (natural protein; other documents disagree on this pair) (P49747 21-757): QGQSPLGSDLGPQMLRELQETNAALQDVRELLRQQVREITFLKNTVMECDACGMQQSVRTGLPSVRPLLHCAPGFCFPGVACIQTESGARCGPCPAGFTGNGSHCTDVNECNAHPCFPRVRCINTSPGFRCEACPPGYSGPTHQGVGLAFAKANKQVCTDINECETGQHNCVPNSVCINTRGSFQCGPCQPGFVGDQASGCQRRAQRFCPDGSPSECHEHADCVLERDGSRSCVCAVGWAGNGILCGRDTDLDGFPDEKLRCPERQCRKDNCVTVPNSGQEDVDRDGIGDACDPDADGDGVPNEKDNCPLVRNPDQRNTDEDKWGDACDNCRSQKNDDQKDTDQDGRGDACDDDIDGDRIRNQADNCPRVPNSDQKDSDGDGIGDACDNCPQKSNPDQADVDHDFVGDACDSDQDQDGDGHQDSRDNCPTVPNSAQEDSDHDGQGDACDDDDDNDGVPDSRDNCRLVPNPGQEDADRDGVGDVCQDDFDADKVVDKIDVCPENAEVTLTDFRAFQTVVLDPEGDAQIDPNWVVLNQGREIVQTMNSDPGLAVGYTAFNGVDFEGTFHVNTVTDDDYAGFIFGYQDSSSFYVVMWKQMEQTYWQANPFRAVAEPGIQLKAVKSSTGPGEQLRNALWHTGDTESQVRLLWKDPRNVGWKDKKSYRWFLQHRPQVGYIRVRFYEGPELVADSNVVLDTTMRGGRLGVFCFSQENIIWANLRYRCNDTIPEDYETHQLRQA

Regarding “recombinant human cartilage oligomeric matrix protein (COMP), P49747 21-757 (natural protein; other documents disagree on this pair)”, the stoichiometry N worked out at 5.
